Usually Km stands for the substrate concentration at which the rate is half of its maximum.

Substrate in data set [1]: O=C(NCc1ccccc1)C1CN(S(=O)(=O)O)C1=O
In words: (§1) Binding affinity to class C beta lactamase of Enterobacter cloacae P99.

Substrate in data set [2]: O=C(Cc1ccccc1)N[C@H]1CN(S(=O)(=O)O)C1=O
Described as §1.

Substrate in data set [3]: O=C(NCc1ccccc1)C1CN(S(=O)(=O)O)C1=O
In words: (§2) Binding affinity to class A beta lactamase of Staphylococcus aureus PC1.

Substrate in data set [4]: O=C(Cc1ccccc1)N[C@H]1CN(S(=O)(=O)O)C1=O
Described as §2.

Substrate in data set [5]: O=C(NCc1ccccc1)C1CN(S(=O)(=O)O)C1=O
In words: (§3) Binding affinity to class D beta lactamase OXA1 of Escherichia coli.

Substrate in data set [6]: O=C(Cc1ccccc1)N[C@H]1CN(S(=O)(=O)O)C1=O
The description is as §3.

Substrate in data set [7]: O=C(NCc1ccccc1)C1CN(S(=O)(=O)O)C1=O
In words: (§4) Binding affinity to TEM class A beta lactamase from the TEM2 plasmid. The note with it: Escherichia coli.

Substrate in data set [8]: O=C(Cc1ccccc1)N[C@H]1CN(S(=O)(=O)O)C1=O
Described as §4. The note with it: Escherichia coli.

B1: Beta-lactamase class C (Enterobacter cloacae), Q59401 (protein)
chain: MMKKSLCCALLLGISCSALATPVSEKQLAEVVANTVTPLMKAQSVPGMAVAVIYQGKPHYYTFGKADIAANKPVTPQTLFELGSISKTFTGVLGGDAIARGEISLDDPVTRYWPQLTGKQWQGIRMLDLATYTAGGLPLQVPDEVTDNASLLRFYQNWQPQWKPGTTRLYANASIGLFGALAVKPSGMPYEQAMTTRVLKPLKLDHTWINVPKAEEAHYAWGYRDGKAVRAVRVSPGMLDAQAYGVKTNVQDMANWVMANMAPENVADASLKQGIALAQSRYWRIGSMYQGLGWEMLNWPVEANTVVEGSDSKVALAPLPVAEVNPPAPPVKASWVHKTGSTGGFGSYVAFIPEKQIGIVMLANTSYPNPARVEAAYHILEALQ
For B1, the Km is 75 µM in data set [1] and 1000 µM in data set [2].

B2: Beta-lactamase (Staphylococcus aureus), P00807 (protein)
chain: MKKLIFLIVIALVLSACNSNSSHAKELNDLEKKYNAHIGVYALDTKSGKEVKFNSDKRFAYASTSKAINSAILLEQVPYNKLNKKVHINKDDIVAYSPILEKYVGKDITLKALIEASMTYSDNTANNKIIKEIGGIKKVKQRLKELGDKVTNPVRYEIELNYYSPKSKKDTSTPAAFGKTLNKLIANGKLSKENKKFLLDLMLNNKSGDTLIKDGVPKDYKVADKSGQAITYASRNDVAFVYPKGQSEPIVLVIFTNKDNKSDKPNDKLISETAKSVMKEF
As to B2, the Km in data set [3] turned out to be 300 µM; in data set [4], 70 µM.

B3: Beta-lactamase OXA-1 (Escherichia coli), P13661 (protein)
chain: MKNTIHINFAIFLIIANIIYSSASASTDISTVASPLFEGTEGCFLLYDASTNAEIAQFNKAKCATQMAPDSTFKIALSLMAFDAEIIDQKTIFKWDKTPKGMEIWNSNHTPKTWMQFSVVWVSQEITQKIGLNKIKNYLKDFDYGNQDFSGDKERNNGLTEAWLESSLKISPEEQIQFLRKIINHNLPVKNSAIENTIENMYLQDLDNSTKLYGKTGAGFTANRTLQNGWFEGFIISKSGHKYVFVSALTGNLGSNLTSSIKAKKNAITILNTLNL
Take B3: the Km in data set [5] stood at 2300 µM; in data set [6], 29 µM.

B4: Beta-lactamase TEM (Escherichia coli), P62593 (protein)
chain: MSIQHFRVALIPFFAAFCLPVFAHPETLVKVKDAEDQLGARVGYIELDLNSGKILESFRPEERFPMMSTFKVLLCGAVLSRVDAGQEQLGRRIHYSQNDLVEYSPVTEKHLTDGMTVRELCSAAITMSDNTAANLLLTTIGGPKELTAFLHNMGDHVTRLDRWEPELNEAIPNDERDTTMPAAMATTLRKLLTGELLTLASRQQLIDWMEADKVAGPLLRSALPAGWFIADKSGAGERGSRGIIAALGPDGKPSRIVVIYTTGSQATMDERNRQIAEIGASLIKHW
Turning to B4, the Km in data set [7] turned out to be 2500 µM; in data set [8], 6800 µM.

For the origin of these results see ChEMBL document CHEMBL1138116, “Synthesis and reactivity with beta-lactamases of a monobactam bearing a retro-amide side chain” (Bioorg Med Chem Lett, 2006).
